The record followed here is PMC3285597.

This series relates to human Oct-1 E30D/M33L (rodent-like);VP16ΔC;HCF-1N380 (beta-propeller domain) (Homo sapiens;HSV-1;Homo sapiens). In words: EMSA. The note with it: 10 mM Hepes pH 7.9, 75 mM KCl, 1 mM EDTA, 10 mM DTT, 1 µg poly-dI-dC, up to 4 µl reticulocyte lysate, room temperature 20 min; 4% native gel in 1x …. A general note: In EMSA bound probe runs differently from free probe, usually more slowly.

As to ICP0 (OCTA+)TAATGARAT probe, the binding signal (fold reduction of VIC vs wild type Oct-1) is above 100.
